This note sets out measurements from article PMC2879411.

Experiment [1] deals with filamentous actin (F-actin), rabbit skeletal muscle (rabbit) (UniProt P68135).
The target of experiment [2] is filamentous actin (F-actin), rabbit skeletal muscle (UniProt P68135). As to the kind of experiment: inhibition of barbed end elongation from spectrin-actin seeds (pyrenyl-actin), fitted binding curve with 1:1 stoichiometry. As to conditions: 2 µM G-actin (10% pyrenyl-labeled).
Experiment [3] deals with filamentous actin (F-actin), rabbit skeletal muscle (rabbit) (UniProt P68135). The source holds these as a separate data set.
For experiment [4] the target is unchanged. This is another data set of the same source.
The target of experiment [5] is GST-fused Eps8(648–821) wild type (mouse) (UniProt Q08509). As to the kind of experiment: SEC + other: glycerol gradient sedimentation; Superdex200 10/30 and 10%–40% glycerol gradients (100 mM Tris-HCl pH 8, 500 mM NaCl, 1 mM dithiothreitol, 1 mM EDTA) of purified GST-Eps8(648–821) proteins.
The target in experiment [6] is AEDANS-labeled monomeric actin (rabbit) (UniProt P68135). As to the kind of experiment: other fluorescence titration; competition: 1.5 µM AEDANS-labeled actin, increasing Thymosin β4 with 0, 15 or 30 µM Eps8(648–821) or 0, 10 or 15 µM H1–H2; 0.1 M KCl and 1 mM MgCl2 (high salt); apparent constants.

For the substance “C-terminal fragment of Ce-EPS-8A (aa 714–917) fused to GST, wild type (domain or fragment)”, the Kcap of barbed end inhibition: elongation from spectrin-actin seeds with 2 µM G-actin (10% pyrenyl-labeled) in experiment [1] amounted to 108 nM.

The substance “C-terminal fragment of Ce-EPS-8A (aa 714–917) fused to GST, wild type Δbund” displayed an other: Kcap in experiment [2] of 205 nM. The substance “C-terminal fragment of Ce-EPS-8A (aa 714–917) fused to GST, wild type Δcap” displayed an other: Kcap in experiment [2] of 980 nM. As to “C-terminal fragment of Ce-EPS-8A (aa 714–917) fused to GST, wild type ΔcapΔbund”, in experiment [2], the other: Kcap was over 4000 nM. Regarding “Eps8(648–821)-V689D-L693D (Eps8-Δcap) (from UniProt Q08509 648-821) (domain or fragment)”, in experiment [3], the Kcap: barbed end elongation from spectrin-actin seeds turned out to be 700 nM. Take “GST-fused Eps8(648–821) wild type (from UniProt Q08509 648-821) (domain or fragment)”: in experiment [4], the Kcap: barbed end elongation, wild type of Figure 6C came to 4 nM and the Kcap: barbed end elongation, wild type of Figure 6D came out at 16 nM. The stoichiometry N in experiment [5] worked out at 2. Turning to “GST-fused Eps8-ΔcapΔbund, double H1 and Villin-like motif mutant of Eps8(648–821) (from UniProt Q08509 648-821) (domain or fragment)”, the Kcap: barbed end elongation in experiment [4] is 4 µM. Thymosin β4 (peptide): in experiment [6], the Kapp with 10 µM H1–H2 came out at 6 µM, the Kapp with 15 µM Eps8(648–821) is 9 µM, the Kapp with 15 µM H1–H2 amounted to 11 µM and the Kapp with 30 µM Eps8(648–821) was 14 µM. In experiment [6], the Kd was 3000 nM.
